According to IntAct's records for PubMed 31515488:

B1: Keratin-associated protein 5-9 (Homo sapiens), P26371 (parent)
chain: MGCCGCSGGCGSSCGGCDSSCGSCGSGCRGCGPSCCAPVYCCKPVCCCVPACSCSSCGKRGCGSCGGSKGGCGSCGCSQCSCCKPCCCSSGCGSSCCQCSCCKPYCSQCSCCKPCCSSSGRGSSCCQSSCCKPCCSSSGCGSSCCQSSCCKPCCSQSRCCVPVCYQCKI
partner: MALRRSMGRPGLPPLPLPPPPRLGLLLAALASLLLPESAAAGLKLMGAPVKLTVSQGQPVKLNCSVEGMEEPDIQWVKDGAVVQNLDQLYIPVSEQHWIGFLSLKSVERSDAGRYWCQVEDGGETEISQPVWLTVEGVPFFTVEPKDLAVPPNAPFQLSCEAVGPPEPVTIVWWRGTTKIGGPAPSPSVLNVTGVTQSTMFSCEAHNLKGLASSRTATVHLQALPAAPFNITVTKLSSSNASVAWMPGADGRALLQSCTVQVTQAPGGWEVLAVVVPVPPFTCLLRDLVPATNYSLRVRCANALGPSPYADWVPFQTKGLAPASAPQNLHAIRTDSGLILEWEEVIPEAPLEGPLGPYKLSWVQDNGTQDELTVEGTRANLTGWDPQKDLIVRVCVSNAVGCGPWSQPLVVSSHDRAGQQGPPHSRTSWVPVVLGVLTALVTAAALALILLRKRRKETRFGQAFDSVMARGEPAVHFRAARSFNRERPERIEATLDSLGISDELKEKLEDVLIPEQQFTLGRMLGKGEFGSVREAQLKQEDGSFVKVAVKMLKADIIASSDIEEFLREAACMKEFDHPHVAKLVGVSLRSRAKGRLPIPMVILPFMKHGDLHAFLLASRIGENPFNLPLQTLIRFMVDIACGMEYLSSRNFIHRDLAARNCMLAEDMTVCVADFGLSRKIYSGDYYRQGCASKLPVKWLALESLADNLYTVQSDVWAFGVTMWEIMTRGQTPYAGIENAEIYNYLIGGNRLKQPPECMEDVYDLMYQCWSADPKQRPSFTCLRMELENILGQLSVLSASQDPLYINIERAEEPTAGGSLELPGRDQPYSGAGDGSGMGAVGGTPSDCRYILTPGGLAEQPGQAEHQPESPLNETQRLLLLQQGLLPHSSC
B2: Ras association domain-containing protein 7 (Homo sapiens), Q02833 (parent)
chain: MLLGLAAMELKVWVDGIQRVVCGVSEQTTCQEVVIALAQAIGQTGRFVLVQRLREKERQLLPQECPVGAQATCGQFASDVQFVLRRTGPSLAGRPSSDSCPPPERCLIRASLPVKPRAALGCEPRKTLTPEPAPSLSRPGPAAPVTPTPGCCTDLRGLELRVQRNAEELGHEAFWEQELRREQAREREGQARLQALSAATAEHAARLQALDAQARALEAELQLAAEAPGPPSPMASATERLHQDLAVQERQSAEVQGSLALVSRALEAAERALQAQAQELEELNRELRQCNLQQFIQQTGAALPPPPRPDRGPPGTQGPLPPAREESLLGAPSESHAGAQPRPRGGPHDAELLEVAAAPAPEWCPLAAQPQAL
B3: Isoform 1 of Targeting protein for Xklp2 (Homo sapiens), Q9ULW0-1 (parent)
chain: MSQVKSSYSYDAPSDFINFSSLDDEGDTQNIDSWFEEKANLENKLLGKNGTGGLFQGKTPLRKANLQQAIVTPLKPVDNTYYKEAEKENLVEQSIPSNACSSLEVEAAISRKTPAQPQRRSLRLSAQKDLEQKEKHHVKMKAKRCATPVIIDEILPSKKMKVSNNKKKPEEEGSAHQDTAEKNASSPEKAKGRHTVPCMPPAKQKFLKSTEEQELEKSMKMQQEVVEMRKKNEEFKKLALAGIGQPVKKSVSQVTKSVDFHFRTDERIKQHPKNQEEYKEVNFTSELRKHPSSPARVTKGCTIVKPFNLSQGKKRTFDETVSTYVPLAQQVEDFHKRTPNRYHLRSKKDDINLLPSKSSVTKICRDPQTPVLQTKHRARAVTCKSTAELEAEELEKLQQYKFKARELDPRILEGGPILPKKPPVKPPTEPIGFDLEIEKRIQERESKKKTEDEHFEFHSRPCPTKILEDVVGVPEKKVLPITVPKSPAFALKNRIRMPTKEDEEEDEPVVIKAQPVPHYGVPFKPQIPEARTVEICPFSFDSRDKERQLQKEKKIKELQKGEVPKFKALPLPHFDTINLPEKKVKNVTQIEPFCLETDRRGALKAQTWKHQLEEELRQQKEAACFKARPNTVISQEPFVPKKEKKSVAEGLSGSLVQEPFQLATEKRAKERQELEKRMAEVEAQKAQQLEEARLQEEEQKKEELARLRRELVHKANPIRKYQGLEIKSSDQPLTVPVSPKFSTRFHC
partner: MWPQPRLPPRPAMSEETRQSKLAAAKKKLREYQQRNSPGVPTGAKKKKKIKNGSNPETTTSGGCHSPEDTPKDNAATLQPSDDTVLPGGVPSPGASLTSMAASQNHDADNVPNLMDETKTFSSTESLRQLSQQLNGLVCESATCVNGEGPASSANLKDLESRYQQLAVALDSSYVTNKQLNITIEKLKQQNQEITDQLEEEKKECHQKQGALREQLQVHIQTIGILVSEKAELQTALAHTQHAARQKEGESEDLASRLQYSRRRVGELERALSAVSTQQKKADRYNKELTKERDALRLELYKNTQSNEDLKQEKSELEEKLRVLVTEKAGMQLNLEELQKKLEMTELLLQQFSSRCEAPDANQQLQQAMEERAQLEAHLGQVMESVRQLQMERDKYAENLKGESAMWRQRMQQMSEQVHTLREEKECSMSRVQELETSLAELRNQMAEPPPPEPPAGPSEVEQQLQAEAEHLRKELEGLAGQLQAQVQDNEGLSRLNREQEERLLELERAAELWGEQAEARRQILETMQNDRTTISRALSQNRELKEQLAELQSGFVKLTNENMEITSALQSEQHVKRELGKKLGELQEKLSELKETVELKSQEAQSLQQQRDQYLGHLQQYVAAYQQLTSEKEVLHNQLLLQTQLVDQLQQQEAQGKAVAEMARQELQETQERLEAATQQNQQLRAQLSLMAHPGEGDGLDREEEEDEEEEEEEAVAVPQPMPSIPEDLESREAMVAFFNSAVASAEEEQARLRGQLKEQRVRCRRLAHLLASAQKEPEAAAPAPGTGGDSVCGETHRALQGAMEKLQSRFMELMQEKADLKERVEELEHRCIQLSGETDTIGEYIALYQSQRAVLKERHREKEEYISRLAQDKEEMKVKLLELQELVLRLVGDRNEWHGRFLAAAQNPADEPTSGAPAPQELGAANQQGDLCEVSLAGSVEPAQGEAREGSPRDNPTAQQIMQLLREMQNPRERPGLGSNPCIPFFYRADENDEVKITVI
B4: Syntenin-2 (Homo sapiens), Q9H190 (parent)
chain: MSSLYPSLEDLKVDQAIQAQVRASPKMPALPVQATAISPPPVLYPNLAELENYMGLSLSSQEVQESLLQIPEGDSTAVSGPGPGQMVAPVTGYSLGVRRAEIKPGVREIHLCKDERGKTGLRLRKVDQGLFVQLVQANTPASLVGLRFGDQLLQIDGRDCAGWSSHKAHQVVKKASGDKIVVVVRDRPFQRTVTMHKDSMGHVGFVIKKGKIVSLVKGSSAARNGLLTNHYVCEVDGQNVIGLKDKKIMEILATAGNVVTLTIIPSVIYEHMVKKLPPVLLHHTMDHSIPDA
partner: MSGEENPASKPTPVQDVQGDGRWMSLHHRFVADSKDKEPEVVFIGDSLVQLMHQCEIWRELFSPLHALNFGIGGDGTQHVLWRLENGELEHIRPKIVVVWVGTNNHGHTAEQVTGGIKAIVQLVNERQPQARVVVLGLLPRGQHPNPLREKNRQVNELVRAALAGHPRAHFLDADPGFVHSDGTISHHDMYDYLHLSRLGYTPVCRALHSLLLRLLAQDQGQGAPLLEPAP
B5: Mevalonate kinase (Homo sapiens), Q03426 (parent)
chain: MLSEVLLVSAPGKVILHGEHAVVHGKVALAVSLNLRTFLRLQPHSNGKVDLSLPNIGIKRAWDVARLQSLDTSFLEQGDVTTPTSEQVEKLKEVAGLPDDCAVTERLAVLAFLYLYLSICRKQRALPSLDIVVWSELPPGAGLGSSAAYSVCLAAALLTVCEEIPNPLKDGDCVNRWTKEDLELINKWAFQGERMIHGNPSGVDNAVSTWGGALRYHQGKISSLKRSPALQILLTNTKVPRNTRALVAGVRNRLLKFPEIVAPLLTSIDAISLECERVLGEMGEAPAPEQYLVLEELIDMNQHHLNALGVGHASLDQLCQVTRARGLHSKLTGAGGGGCGITLLKPGLEQPEVEATKQALTSCGFDCLETSIGAPGVSIHSATSLDSRVQQALDGL

Variants of: B1
Conditions: with tyro3_human TYRO3, Q06418

Variant | effect of a mutation on the interaction
Y40C | disrupting interaction strength

Variants of: B2
Conditions: with nck2_human NCK2, O43639
Sequence of nck2_human NCK2, O43639 (O43639 whole entry): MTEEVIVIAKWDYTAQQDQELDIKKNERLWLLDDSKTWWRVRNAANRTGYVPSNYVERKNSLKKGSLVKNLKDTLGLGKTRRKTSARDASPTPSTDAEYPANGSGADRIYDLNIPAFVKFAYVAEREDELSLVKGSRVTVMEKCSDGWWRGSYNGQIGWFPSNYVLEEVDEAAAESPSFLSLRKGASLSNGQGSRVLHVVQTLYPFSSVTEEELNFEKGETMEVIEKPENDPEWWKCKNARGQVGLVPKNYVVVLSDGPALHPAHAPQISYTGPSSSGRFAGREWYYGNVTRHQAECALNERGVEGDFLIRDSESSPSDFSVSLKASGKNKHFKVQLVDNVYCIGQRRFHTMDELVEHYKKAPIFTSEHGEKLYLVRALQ

Variant | effect of a mutation on the interaction
R156Q | with no effect

Variants of: B3
Conditions: with goga2_human GOLGA2, Q08379

Variant | effect of a mutation on the interaction
T464N | with no effect

Variants of: B4
Conditions: with pa1b3_human PAFAH1B3, Q15102

Variant | effect of a mutation on the interaction
V182M | with no effect
G225R | with no effect
G242R | with no effect

Variants of: B5
Conditions: with ews_human EWSR1, Q01844
Sequence of ews_human EWSR1, Q01844 (Q01844 whole entry): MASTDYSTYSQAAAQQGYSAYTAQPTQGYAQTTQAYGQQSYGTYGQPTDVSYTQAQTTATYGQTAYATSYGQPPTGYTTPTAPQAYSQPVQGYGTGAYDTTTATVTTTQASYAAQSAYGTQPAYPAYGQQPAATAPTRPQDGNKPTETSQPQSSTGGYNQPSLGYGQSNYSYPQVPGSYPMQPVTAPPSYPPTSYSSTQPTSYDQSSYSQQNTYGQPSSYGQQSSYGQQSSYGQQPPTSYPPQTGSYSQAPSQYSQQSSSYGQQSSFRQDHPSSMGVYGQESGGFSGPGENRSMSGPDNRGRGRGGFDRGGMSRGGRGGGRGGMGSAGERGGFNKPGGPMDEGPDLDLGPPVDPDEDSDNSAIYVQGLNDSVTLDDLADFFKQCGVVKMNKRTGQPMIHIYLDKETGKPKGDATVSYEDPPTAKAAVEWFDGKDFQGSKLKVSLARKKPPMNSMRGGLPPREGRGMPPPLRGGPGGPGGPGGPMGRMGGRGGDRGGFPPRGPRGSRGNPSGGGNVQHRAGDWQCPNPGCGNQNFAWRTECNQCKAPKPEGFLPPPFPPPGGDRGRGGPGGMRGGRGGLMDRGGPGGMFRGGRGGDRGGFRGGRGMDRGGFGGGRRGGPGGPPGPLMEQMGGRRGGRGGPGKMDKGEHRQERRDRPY

Variant | effect of a mutation on the interaction
N301T | with no effect
